Reference: paper PMC9284284

Biological target: T1, TCP4 DNA-binding domain (Arabidopsis thaliana, UniProt Q8LPR5 45-103)
T1 sequence: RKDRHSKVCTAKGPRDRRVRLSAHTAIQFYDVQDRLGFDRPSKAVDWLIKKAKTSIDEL
Assay: EMSA

B1: SOC1-DNA (dsDNA)
DNA 1: TAATTAGTTTGTGTGGTCCTCCTCCCGATA
DNA 2: TATCGGGAGGAGGACCACACAAACTAATTA
B1: binds.
